{"source": "patent US20200353049A1", "key": {"[1]": {"target": "IL-22R1a extracellular domain (ECD) (UniProt Q8N6P7)", "sequence (Q8N6P7 16-228 limits assumed)": "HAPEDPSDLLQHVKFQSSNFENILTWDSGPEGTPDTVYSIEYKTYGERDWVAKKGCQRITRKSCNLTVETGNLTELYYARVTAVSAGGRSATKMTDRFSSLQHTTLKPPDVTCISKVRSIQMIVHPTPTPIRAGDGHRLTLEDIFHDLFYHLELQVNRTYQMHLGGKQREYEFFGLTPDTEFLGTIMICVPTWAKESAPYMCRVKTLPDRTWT", "test": "binding ELISA on plate-coated IL-22R1a ECD, relative to Reference Standard (100%); stored 5 C, 2 months"}, "[2]": {"target": "IL-22R1a extracellular domain (ECD) (UniProt Q8N6P7)", "test": "potency assay (binding ELISA on plate-coated IL-22R1a ECD), relative to reference standard (100%); stored 25 C, 1 month"}, "[3]": {"target": "IL-22R1a extracellular domain (ECD) (UniProt Q8N6P7)", "test": "potency assay (binding ELISA on plate-coated IL-22R1a ECD), relative to reference standard (100%); stored 25 C, 6 months"}, "[4]": {"target": "IL-22R1a extracellular domain (ECD) (UniProt Q8N6P7)", "test": "binding ELISA on plate-coated IL-22R1a ECD, relative to Reference Standard (100%); stored -20 C, 12 months"}, "[5]": {"target": "IL-22R1a extracellular domain (ECD) (UniProt Q8N6P7)", "test": "binding ELISA on plate-coated IL-22R1a ECD, relative to Reference Standard (100%); stored 5 C, 6 months"}, "[6]": {"target": "IL-22R1a extracellular domain (ECD) (UniProt Q8N6P7)", "test": "binding ELISA on plate-coated IL-22R1a ECD, relative to Reference Standard (100%); stored -20 C, 3 months"}, "[7]": {"target": "IL-22R1a extracellular domain (ECD) (UniProt Q8N6P7)", "test": "binding ELISA on plate-coated IL-22R1a ECD, relative to Reference Standard (100%); stored -20 C, 36 months"}, "[8]": {"target": "IL-22R1a extracellular domain (ECD) (UniProt Q8N6P7)", "test": "potency assay (binding ELISA on plate-coated IL-22R1a ECD), relative to reference standard (100%); stored 5 C, 18 months"}, "[9]": {"target": "IL-22R1a extracellular domain (ECD) (UniProt Q8N6P7)", "test": "binding ELISA on plate-coated IL-22R1a ECD, relative to Reference Standard (100%); T=0"}, "[10]": {"target": "IL-22R1a extracellular domain (ECD) (UniProt Q8N6P7)", "test": "binding ELISA on plate-coated IL-22R1a ECD, relative to Reference Standard (100%); stored 5 C, 1 month"}, "[11]": {"target": "IL-22R1a extracellular domain (ECD) (UniProt Q8N6P7)", "test": "potency assay (binding ELISA on plate-coated IL-22R1a ECD); change after 6 months at 25 C (supportive stability study)"}, "[12]": {"target": "IL-22R1a extracellular domain (ECD) (UniProt Q8N6P7)", "test": "binding ELISA on plate-coated IL-22R1a ECD, relative to Reference Standard (100%); T=0", "remark": "listed apart in the source"}, "[13]": {"target": "IL-22R1a extracellular domain (ECD) (UniProt Q8N6P7)", "test": "potency assay (binding ELISA on plate-coated IL-22R1a ECD), relative to reference standard (100%); stored 5 C, 24 months"}, "[14]": {"target": "IL-22R1a extracellular domain (ECD) (UniProt Q8N6P7)", "test": "potency assay (binding ELISA on plate-coated IL-22R1a ECD), relative to reference standard (100%); stored 5 C, 12 months"}, "[15]": {"target": "IL-22R1a extracellular domain (ECD) (UniProt Q8N6P7)", "test": "potency assay (binding ELISA on plate-coated IL-22R1a ECD), relative to reference standard (100%); stored 5 C, 42 months"}, "[16]": {"target": "IL-22R1a extracellular domain (ECD) (UniProt Q8N6P7)", "test": "potency assay (binding ELISA on plate-coated IL-22R1a ECD), relative to reference standard (100%); stored 5 C, 36 months"}, "[17]": {"target": "IL-22R1a extracellular domain (ECD) (UniProt Q8N6P7)", "test": "potency assay (binding ELISA on plate-coated IL-22R1a ECD), relative to reference standard (100%); stored 5 C, 36 months", "remark": "listed apart in the source"}, "[18]": {"target": "IL-22R1a extracellular domain (ECD) (UniProt Q8N6P7)", "test": "potency assay (binding ELISA on plate-coated IL-22R1a ECD), relative to reference standard; 40 C stress, day 5"}, "[19]": {"target": "IL-22R1a extracellular domain (ECD) (UniProt Q8N6P7)", "test": "potency assay (binding ELISA on plate-coated IL-22R1a ECD), relative to reference standard (100%); stored 5 C, 6 months"}, "[20]": {"target": "IL-22R1a extracellular domain (ECD) (UniProt Q8N6P7)", "test": "binding ELISA on plate-coated IL-22R1a ECD, relative to Reference Standard (100%); stored -20 C, 48 months"}, "[21]": {"target": "IL-22R1a extracellular domain (ECD) (UniProt Q8N6P7)", "test": "potency assay (binding ELISA on plate-coated IL-22R1a ECD), relative to reference standard (100%); stored 5 C, 6 months", "remark": "listed apart in the source"}, "[22]": {"target": "IL-22R1a extracellular domain (ECD) (UniProt Q8N6P7)", "test": "potency assay (binding ELISA on plate-coated IL-22R1a ECD), relative to reference standard (100%); T=0"}, "[23]": {"target": "IL-22R1a extracellular domain (ECD) (UniProt Q8N6P7)", "test": "potency assay (binding ELISA on plate-coated IL-22R1a ECD), relative to reference standard (100%); stored 5 C, 9 months"}, "[24]": {"target": "IL-22R1a extracellular domain (ECD) (UniProt Q8N6P7)", "test": "binding ELISA on plate-coated IL-22R1a ECD, relative to Reference Standard; pH 7.0 formulation stored 1 week at 40 C"}, "[25]": {"target": "IL-22R1a extracellular domain (ECD) (UniProt Q8N6P7)", "test": "potency assay (binding ELISA on plate-coated IL-22R1a ECD); change after 2 weeks at 40 C; this end matches Clinical Batch 3 in Table 26 (85 to 57)"}, "[26]": {"target": "IL-22R1a extracellular domain (ECD) (UniProt Q8N6P7)", "test": "binding ELISA on plate-coated IL-22R1a ECD, relative to Reference Standard (100%); stored 5 C, 6 months", "remark": "listed apart in the source"}, "[27]": {"target": "IL-22R1a extracellular domain (ECD) (UniProt Q8N6P7)", "test": "potency assay (binding ELISA on plate-coated IL-22R1a ECD), relative to reference standard (100%); stored 25 C, 3 months"}, "[28]": {"target": "IL-22R1a extracellular domain (ECD) (UniProt Q8N6P7)", "test": "potency assay (binding ELISA on plate-coated IL-22R1a ECD), relative to reference standard (100%); stored 5 C, 48 months"}}}
{"substance": "IL-22 Fc fusion protein", "values": [{"measurement": "Potency by Binding Assay (% relative potency) (% relative potency)", "setting": "[1]", "value": 75}, {"measurement": "Potency (% relative potency) (% relative potency)", "setting": "[2]", "value": 68}, {"measurement": "Potency (% relative potency) (% relative potency)", "setting": "[3]", "value": 72}, {"measurement": "Potency by Binding Assay (% relative potency) (% relative potency)", "setting": "[4]", "value": 69}, {"measurement": "Potency by Binding Assay (% relative potency) (% relative potency)", "setting": "[5]", "value": 71}, {"measurement": "Potency by Binding Assay (% relative potency) (% relative potency)", "setting": "[6]", "value": 104}, {"measurement": "Potency by Binding Assay (% relative potency) (% relative potency)", "setting": "[7]", "value": 71}, {"measurement": "Potency (% relative potency) (% relative potency)", "setting": "[8]", "value": 93}, {"measurement": "Potency by Binding Assay (% relative potency) (% relative potency)", "setting": "[9]", "value": 108}, {"measurement": "Potency by Binding Assay (% relative potency) (% relative potency)", "setting": "[10]", "value": 73}, {"measurement": "loss of % relative potency (% relative potency)", "setting": "[11]", "value": 29}, {"measurement": "Potency by Binding Assay (% relative potency) (% relative potency)", "setting": "[12]", "value": 71}, {"measurement": "Potency (% relative potency) (% relative potency)", "setting": "[13]", "value": 83}, {"measurement": "Potency (% relative potency) (% relative potency)", "setting": "[14]", "value": 67}, {"measurement": "Potency (% relative potency) (% relative potency)", "setting": "[15]", "value": 87}, {"measurement": "Potency (% relative potency) (% relative potency)", "setting": "[16]", "value": 67}, {"measurement": "Potency (% relative potency) (% relative potency)", "setting": "[17]", "value": 99}, {"measurement": "Potency (% relative potency) (% relative potency)", "setting": "[18]", "value": 80}, {"measurement": "Potency (% relative potency) (% relative potency)", "setting": "[19]", "value": 100}, {"measurement": "Potency by Binding Assay (% relative potency) (% relative potency)", "setting": "[20]", "value": 93}, {"measurement": "Potency (% relative potency) (% relative potency)", "setting": "[21]", "value": 64}, {"measurement": "Potency (% relative potency) (% relative potency)", "setting": "[22]", "value": 73}, {"measurement": "Potency (% relative potency) (% relative potency)", "setting": "[23]", "value": 63}, {"measurement": "Estimated % relative potency (n = 2) (% relative potency)", "setting": "[24]", "value": 81}, {"measurement": "decrease in % relative potency (% relative potency)", "setting": "[25]", "value": 28}, {"measurement": "Potency by Binding Assay (% relative potency) (% relative potency)", "setting": "[26]", "value": 98}, {"measurement": "Potency (% relative potency) (% relative potency)", "setting": "[27]", "value": 57}, {"measurement": "Potency (% relative potency) (% relative potency)", "setting": "[28]", "value": 65}]}
